Source: patent US20190248877A1 (Hoffmann-La Roche, published 2019)

Assays:
Assay in all cases: SPR ProteOn XPR36, biotinylated antigen on NLC chip, Fab as analyte, 25 C
[1] = biological target: T1, GST huTNC fn5 A1234 BC fn6 B (human, UniProt P24821 984-1798, biotin on the C-terminal avi-tag (BirA, site-specific))
T1 construct: also called Human GST-fused TnC fn5 A1234 BC fn6
T1 sequence: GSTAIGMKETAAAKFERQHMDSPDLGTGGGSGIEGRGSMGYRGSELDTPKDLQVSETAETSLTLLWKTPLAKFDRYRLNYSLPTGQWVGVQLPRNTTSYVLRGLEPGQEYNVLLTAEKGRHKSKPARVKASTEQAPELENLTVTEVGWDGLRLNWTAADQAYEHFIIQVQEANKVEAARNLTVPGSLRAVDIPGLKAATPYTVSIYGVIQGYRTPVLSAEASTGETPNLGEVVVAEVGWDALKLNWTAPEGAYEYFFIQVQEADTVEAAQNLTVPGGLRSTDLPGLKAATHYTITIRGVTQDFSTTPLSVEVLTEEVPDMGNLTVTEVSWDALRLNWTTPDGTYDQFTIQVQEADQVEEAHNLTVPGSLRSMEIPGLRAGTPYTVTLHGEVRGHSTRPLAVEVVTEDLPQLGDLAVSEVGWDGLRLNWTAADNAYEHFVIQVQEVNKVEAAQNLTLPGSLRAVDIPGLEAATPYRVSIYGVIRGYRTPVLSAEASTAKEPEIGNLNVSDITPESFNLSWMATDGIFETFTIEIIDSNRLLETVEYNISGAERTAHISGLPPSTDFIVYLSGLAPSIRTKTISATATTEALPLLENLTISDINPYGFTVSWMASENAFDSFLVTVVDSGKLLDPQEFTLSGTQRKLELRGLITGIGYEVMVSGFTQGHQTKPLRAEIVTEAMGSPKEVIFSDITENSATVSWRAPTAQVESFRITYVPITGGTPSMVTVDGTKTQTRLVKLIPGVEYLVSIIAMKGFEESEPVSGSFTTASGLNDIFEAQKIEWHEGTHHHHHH
Procedure: (§1) Immobilization of antigens (ligand): Recombinant antigens were diluted with PBST (10 mM phosphate, 150 mM sodium chloride pH 7.4, 0.005% Tween 20) to 10 μg/ml, then injected at 30 μl/minute in vertical orientation. Injection of analytes: For ‘one-shot kinetics’ measurements, injection direction was changed to horizontal orientation, two-fold dilution series of purified Fab were injected simultaneously along separate channels 1-5, with association times of 200 s, and dissociation times of 240 s, respectively. Buffer (PBST) was injected along the sixth channel to provide an “in-line” blank for referencing. Association rate constants (kₒₙ) and dissociation rate constants (koff) were calculated using a simple one-to-one Langmuir binding model in ProteOn Manager v3.1 software by simultaneously fitting the association and dissociation sensorgrams. The equilibrium dissociation constant (KD) was calculated as the ratio koff/kₒₙ.

[2] = biological target: GST huTNCfn5 mu A124 BC hu fn6 B (human fn5 and fn6, murine extra splice …, biotin on the C-terminal avi-tag (BirA, site-specific))
Procedure: as §1

[3] = biological target: T2, GST huTNC fn5 A1234 fn6 B (human, biotin on the C-terminal avi-tag (BirA, site-specific))
T2 chain: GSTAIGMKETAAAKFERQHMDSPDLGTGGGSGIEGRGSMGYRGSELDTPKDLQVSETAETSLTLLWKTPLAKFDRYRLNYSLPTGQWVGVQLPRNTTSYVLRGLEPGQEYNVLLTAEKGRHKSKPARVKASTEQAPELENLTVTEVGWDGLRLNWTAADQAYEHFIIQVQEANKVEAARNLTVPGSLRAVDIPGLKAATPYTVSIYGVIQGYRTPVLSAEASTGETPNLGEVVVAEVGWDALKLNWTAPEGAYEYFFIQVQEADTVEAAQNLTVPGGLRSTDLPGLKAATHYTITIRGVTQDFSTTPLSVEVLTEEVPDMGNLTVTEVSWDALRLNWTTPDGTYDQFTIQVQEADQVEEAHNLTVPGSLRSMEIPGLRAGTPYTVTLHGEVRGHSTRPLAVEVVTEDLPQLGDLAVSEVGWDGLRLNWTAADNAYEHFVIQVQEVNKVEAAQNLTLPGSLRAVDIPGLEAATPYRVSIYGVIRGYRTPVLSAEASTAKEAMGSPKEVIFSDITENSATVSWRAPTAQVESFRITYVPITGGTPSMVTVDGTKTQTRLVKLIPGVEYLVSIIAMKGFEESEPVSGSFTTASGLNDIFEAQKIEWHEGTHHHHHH
Procedure: as §1

[4] = biological target: T3, huTNC A4 B (human, biotin on the C-terminal avi-tag (BirA, site-specific))
T3 chain: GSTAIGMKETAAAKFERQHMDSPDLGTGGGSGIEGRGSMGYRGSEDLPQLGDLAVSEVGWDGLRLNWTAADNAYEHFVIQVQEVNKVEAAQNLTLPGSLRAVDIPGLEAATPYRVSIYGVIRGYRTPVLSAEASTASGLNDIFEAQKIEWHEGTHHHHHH
Procedure: as §1

[5] = biological target: T4, huTNC A1 B (human)
T4 chain: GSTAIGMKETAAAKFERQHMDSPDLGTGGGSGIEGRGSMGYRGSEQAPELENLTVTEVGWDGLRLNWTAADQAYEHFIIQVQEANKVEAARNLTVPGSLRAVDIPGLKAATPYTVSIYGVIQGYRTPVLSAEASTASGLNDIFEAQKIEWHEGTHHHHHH
Procedure: as §1

B1: anti-TnC clone 18D4 Fab fragment (Fab, V domains shown)
VH: QVQLVQSGAEVKKPGSSVKVSCKASGGTFSSYAISWVRQAPGQGLEWMGGIIPIFGTANYAQKFQGRVTITADKSTSTAYMELSSLRSEDTAVYYCAKGNFYGGLDYWGQGTTVTVSS
VL: DIQMTQSPSTLSASVGDRVTITCRASQSISSWLAWYQQKPGKAPKLLIYDASSLESGVPSRFSGSGSGTEFTLTISSLQPDDFATYYCQQNKKFPSGTFGQGTKVEIK
With B1 as the binder, how does the Kd [1] read?
Its Kd is 4 nM.

What about the Kd [2] of the same binder?
The Kd was 11.2 nM.

What about the Kd [3] of the same binder?
The Kd was 5 nM.

And the Kd [4]?
Its Kd is 2 nM.

What about the Kd [5] of the same binder?
Its Kd is 5.6 nM.
